Assay results reported in patent publication US4374928A, “Novel reductase” (Hoffmann-La Roche Inc., priority 1981, dated 1983).

Columns and labels:
peptide MetSO reductase = molecular target: T1, peptide MetSO reductase (Escherichia coli, UniProt P0A744); experiment: Inhibition of the reduction of MetSO-L12 by excess free MetSO; format: biochemical, E. coli; conditions: 1×10^-4 M MetSO, about 60 times the concentration of MetSO-L12; read-out: inhibition of the enzymatic activity of peptide MetSO reductase
T1 construct: made in house; host or cells: E. coli Z19 cells (endogenous enzyme, not recombinant; ammonium sulfate, DE-52, Ultrogel AcA-44, DEAE-Sephadex)
T1 sequence (P0A744 2-212): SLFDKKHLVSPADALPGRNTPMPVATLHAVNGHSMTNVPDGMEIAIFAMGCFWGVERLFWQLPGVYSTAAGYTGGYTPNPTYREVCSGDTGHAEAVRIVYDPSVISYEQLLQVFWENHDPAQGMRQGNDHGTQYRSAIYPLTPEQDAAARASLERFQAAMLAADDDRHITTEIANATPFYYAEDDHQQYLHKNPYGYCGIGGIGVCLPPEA
Procedure: The assay for the reduction of MetSO-L12 to L12 is based on the ability of L12-transacetylase to specifically acetylate the amino terminal serine of Met-L12 to form acetyl-Met-L12, i.e. L7. A two-step incubation was used. […] After a 60 min incubation at 37°, the reaction mixtures were placed on ice and to each reaction mixture were added 2 μmol of sodium arsenite, 1.2 μg partially purified L12-transacetylase (see below) and [^3 H] acetyl-CoA (935 pmoles, 237 cpm/pmol) and the volume brought to 50 μl. The second incubation (acetylation reaction) was for 5 min at 37°, after which the reaction mixtures were diluted with 3 ml of cold buffer A and filtered through a nitrocellulose filter. The filters were washed with 10 ml of this same buffer, dissolved in scintillation fluid and the radioactivity determined. Under these conditions L12 and acetyl-L12 are quantitatively retained by the nitrocellulose filter. The results are reported as pmoles of acetyl-L12 formed under these conditions.

Met-L12 = experiment: L12-transacetylase assay: acetylation of Met-L12; format: biochemical, E. coli
Procedure: The fractions containing the enzyme activity were pooled (750 mg), concentrated and applied to a hydroxyapatite column (2×15 cm) equilibrated with a buffer containing 25 mM KPO4, pH 6.9, 1 mM β-mercaptoethanol and 10% glycerol. The column was eluted with a gradient from 25 mM to 250 mM KPO4, pH 6.9, containing 1 mM β-mercaptoethanol and 10% glycerol and the fractions containing enzymatic avtivity were pooled and concentrated (72 mg). This procedure yielded a 225 fold purification of the enzyme. Under standard conditions of assay as set forth by Brot and Weissbach [Biochem. Biophys. Res. Commun. 49, 673 (1972)] this fraction acetylated 46 nmols of Met-L12 per mg protein in 5 min. […] These properties are essential in order to use the enzymatic acetylation of Met-L12 as an assay for MetSO-L12 reduction. It was seen that at all concentrations of Met-L12, only one-third of the protein is acetylated.

Molecule `C[S+]([O-])CC[C@H](N)C(=O)O` (stereo partly shown) [MetSO, methionine sulfoxide] has an inhibition at 100 µM (peptide MetSO reductase) of under 20%.

B1: L12-transacetylase: Partially purified E. coli Q13 enzyme that acetylates the amino terminal serine of Met-L12 to form acetyl-Met-L12 (L7) (protein, UniProt P13857 1-179, looked up)
Ribosomal-protein-serine …: MTETIKVSESLELHAVAENHVKPLYQLICKNKTWLQQSLNWPQFVQSEEDTRKTVQGNVMLHQRGYAKMFMIFKEDELIGVISFNRIEPLNKTAEIGYWLDESHQGQGIISQALQALIHHYAQSGELRRFVIKCRVDNPQSNQVALRNGFILEGCLKQAEFLNDAYDDVNLYARIIDSQ
modifications: partially purified
B1 was tested, and the “MetSO-L12 as substrate for acetylation” value (Met-L12) was “not a substrate”, the “fraction of Met-L12 acetylated” value (Met-L12; at all concentrations of Met-L12) was “one-third” and the Met-L12 acetylated (Met-L12; in 5 min, standard conditions of assay, hydroxyapatite fraction) was 46 nmols per mg protein.
